# Experimental data published in the supplement of paper PMC11780869.
# System: Bacillus subtilis
# Assay: cleaved RNA product abundance (RNA/gDNA barcode ratio) relative to median wild-type variant (ratio to wild type); higher = more accumulation of the downstream cleavage product
# Details: cleavage site: cggR-gapA (positions -7 to +36 mutated)
# Experimental: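 MPRA in B. subtilis. Mutagenized RNase Y cleavage-site regions (9% mutation rate) were inserted into a barcoded reporter mRNA (truncated aprE or tetM). Cells were grown in LB at 37°C to OD600 0.3. The cleaved RNA isoform was gel-purified and its barcodes counted; the RNA:gDNA barcode ratio was normalised to the median wild-type variant, and the median over barcodes is reported per variant. The printed sequence is the variable window only; the reporter flanks are not printed.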
# [1] = experiment (reporter, strain, medium): exp 4a: truncated aprE reporter, strain BJT201 with 2% xylose (RNase J1 expressed)
# [2] = experiment (reporter, strain, medium): exp 2b: truncated aprE reporter, strain BJT200
# [3] = experiment (reporter, strain, medium): exp 6: tetM reporter, strain 168
Sequence,cleaved RNA product abundance [1],cleaved RNA product abundance [2],cleaved RNA product abundance [3]
ACAGACGAAGGAGCCGCAAACAAGTTATTAAGGGATGAATAATCCGTCAATATAAATATCTCTCACTTATTTAAA,0.187,–,–
ACAGACGAAGGAGCCGCAAACAAGTTATTAAGGGATGAATAATCTCTCAATATAAATATCTCTCACTTATTTAAA,0.573,0.529,–
ACAGACGAAGGAGCCGCAAACAAGTTATTAAGGGATGAATAATGCCTCAATATAAATATCTCTCACTTATTTAAA,0.0993,–,–
ACAGACGAAGGAGCCGCAAACAAGTTATTAAGGGATGAATAATTCCTCAATATAAATATCTCTCACTTATTTAAA,0.422,–,–
ACAGACGAAGGAGCCGCAAACAAGTTATTAAGGGATGAATATTCCCTCAATATAAATATCTCTCACTTATTTAAA,0.608,–,–
ACAGACGAAGGAGCCGCAAACAAGTTATTAAGGGATGAATTATCCCTCAATATAAATATCTCTCACTTATTTAAA,–,0.669,–
ACAGACGAAGGAGCCGCAAACAAGTTATTAAGGGATGACTAATCCCTCAATATAAATATCTCTCACTTATTTAAA,0.522,0.557,–
ACAGACGAAGGAGCCGCAAACAAGTTATTAAGGGATGGATAATCCCTCAATATAAATATCTCTCACTTATTTAAA,0.545,–,–
ACAGACGAAGGAGCCGCAAACAAGTTATTAAGGGATGTATAATCCCTCAATATAAATATCTCTCACTTATTTAAA,0.478,–,–
ACAGACGAAGGAGCCGCAAACAAGTTATTAAGGGATTAATAATCCCTCAATATAAATATCTCTCACTTATTTAAA,0.656,1.02,–
ACAGACGAAGGAGCCGCAAACAAGTTATTAAGGGCTGAATAATCCCTCAATATAAATATCTCTCACTTATTTAAA,0.471,–,–
ACAGACGAAGGAGCCGCAAACAAGTTATTAAGGGTTGAATAATCCCTCAATATAAATATCTCTCACTTATTTAAA,0.183,–,–
ACAGACGAAGGAGCCGCAAACAAGTTATTAAGGTATGAATAATCCCTCAATATAAATATCTCTCACTTATTTAAA,0.0749,0.102,–
ACAGACGAAGGAGCCGCAAACAAGTTATTAAGTGATGAATAATCCCTCAATATAAATATCTCTCACTTATTTAAA,0.0967,0.0954,–
ACAGACGAAGGAGCCGCAAACAAGTTATTAATGGATGAATAATCCCTCAATATAAATATCTCTCACTTATTTAAA,0.112,0.0836,–
ACAGACGAAGGAGCCGCAAACAAGTTATTATGGGATGAATAATCCCTCAATATAAATATCTCTCACTTATTTAAA,0.213,–,–
ACAGACGAAGGAGCCGCAAACAAGTTATTCAGGGATGAATAATCCCTCAATATAAATATCTCTCACTTATTTAAA,–,0.495,–
ACAGACGAAGGAGCCGCAAACAAGTTATTTAGGGATGAATAATCCCTCAATATAAATATCTCTCACTTATTTAAA,0.67,–,–
ACAGACGAAGGAGCCGCAAACAAGTTTTTAAGGGATGAATAATCCCTCAATATAAATATCTCTCACTTATTTAAA,0.304,0.289,–

Sequence,cleaved RNA product abundance [1],cleaved RNA product abundance [2],cleaved RNA product abundance [3]
ACAGACGAAGGAGCCGCAAACAATTTATTAAGAGATGAATAATCCCTCAATATAAATATCTCTCACTTATTTAAA,0.128,–,–
ACAGACGAAGGAGCCGCAAACAATTTATTAAGGGATGAATAATCCCTCAATATAAATATCTCTCACTTATTTAAA,0.756,–,–
ACAGACGAAGGAGCCGCAAACACGTTATTAAGGGATGAATAATCCCTCAATATAAATATCTCTCACTTATTTAAA,1.21,–,–
ACAGACGAAGGAGCCGCAAACTAGTTATTAAGGGATGAATAATCCCTCAATATAAATATCTCTCACTTATTTAAA,0.991,–,–
ACAGACGAAGGAGCCGCAAAGAAAATATTAAGGGATGAATAATCCCTCAATATAAATATCTCTCACTTATTTAAA,0.697,–,–
ACAGACGAAGGAGCCGCAAAGAAACTATTAAGGGATGAATAATCCCTCAATATAAATATCTCTCACTTATTTAAA,0.557,0.644,–
ACAGACGAAGGAGCCGCAAAGAAAGTTATTAAGGGATGAATAATCCCTCAATATAAATATCTCTCACTTATTTAA,0.775,–,–
ACAGACGAAGGAGCCGCAAAGAAATAATTAAGCGATGAATAATCCCTCAATATAAATATCTCTCACTTATTTAAA,0.166,–,–
ACAGACGAAGGAGCCGCAAAGAAATAATTAAGGGATGAATAATCCCTCAATATAAATATCTCTCACTTATTTAAA,0.381,0.25,–
ACAGACGAAGGAGCCGCAAAGAAATGATTAAGGGATGAATAATCCCTCAATATAAATATCTCTCACTTATTTAAA,0.457,0.354,–
ACAGACGAAGGAGCCGCAAAGAAATTAATAAGGGATGAATAATCCCTCAATATAAATATCTCTCACTTATTTAAA,0.245,0.223,–
ACAGACGAAGGAGCCGCAAAGAAATTACTAAGGGATGAATAATCCCTCAATATAAATATCTCTCACTTATTTAAA,0.247,–,–
ACAGACGAAGGAGCCGCAAAGAAATTAGTAAGGGATGAATAATCCCTCAATATAAATATCTCTCACTTATTTAAA,0.34,0.339,–
ACAGACGAAGGAGCCGCAAAGAAATTATAAAGGGATGAATAATCCCTCAATATAAATATCTCTCACTTATTTAAA,0.342,0.215,–
ACAGACGAAGGAGCCGCAAAGAAATTATCAAGGGATGAATAATCCCTCAATATAAATATCTCTCACTTATTTAAA,0.475,–,–
ACAGACGAAGGAGCCGCAAAGAAATTATGAAGGGATGAATAATCCCTCAATATAAATATCTCTCACTTATTTAAA,0.386,–,–
ACAGACGAAGGAGCCGCAAAGAAATTATTAAAAGATGAATAATCCCTCAATATAAATATCTCTCACTTATTTAAA,0.083,–,–
ACAGACGAAGGAGCCGCAAAGAAATTATTAAAGGATGAATAATCCCTCAATATAAATATCTCTCACTTATTTAAA,0.221,0.144,–
ACAGACGAAGGAGCCGCAAAGAAATTATTAAAGGATTAATAATCCCTCAATATAAATATCTCTCACTTATTTAAA,0.142,–,–

Sequence,cleaved RNA product abundance [1],cleaved RNA product abundance [2],cleaved RNA product abundance [3]
ACAGACGAAGGAGCCGCAAAGAAATTATTAACGGATGAATAATCCCTCAATATAAATATCTCTCACTTATTTAAA,0.168,0.142,–
ACAGACGAAGGAGCCGCAAAGAAATTATTAAGAGATGAATAATCCCTCAAAATAAATATCTCTCACTTATTTAAA,–,0.114,–
ACAGACGAAGGAGCCGCAAAGAAATTATTAAGAGATGAATAATCCCTCAATATAAATATCTCTCACTTATTTAAA,0.112,0.121,–
ACAGACGAAGGAGCCGCAAAGAAATTATTAAGAGATGAATAATCCCTCTATATAAATATCTCTCACTTATTTAAA,0.117,–,–
ACAGACGAAGGAGCCGCAAAGAAATTATTAAGAGATGAATTATCCCTCAATATAAATATCTCTCACTTATTTAAA,0.121,–,–
ACAGACGAAGGAGCCGCAAAGAAATTATTAAGCGATGAATAATCACTCAATATAAATATCTCTCACTTATTTAAA,0.184,–,–
ACAGACGAAGGAGCCGCAAAGAAATTATTAAGCGATGAATAATCCCTCAATATAAATATCTCTCACTTATTTAAA,0.121,0.096,–
ACAGACGAAGGAGCCGCAAAGAAATTATTAAGCGATTAATAATCCCTCAATATAAATATCTCTCACTTATTTAAA,0.0984,–,–
ACAGACGAAGGAGCCGCAAAGAAATTATTAAGGAATGAATAATCCCTCAATATAAATATCTCTCACTTATTTAAA,0.191,0.101,0.104
ACAGACGAAGGAGCCGCAAAGAAATTATTAAGGAATGAATAATCCTTCAATATAAATATCTCTCACTTATTTAAA,0.153,–,–
ACAGACGAAGGAGCCGCAAAGAAATTATTAAGGCATGAATAATCCCTCAATATAAATATCTCTCACTTATTTAAA,0.122,0.109,–
ACAGACGAAGGAGCCGCAAAGAAATTATTAAGGGAAGAATAATCCCTCAATATAAATATCTCTCACTTATTTAAA,0.599,0.394,–
ACAGACGAAGGAGCCGCAAAGAAATTATTAAGGGACGAATAATCCCTCAATATAAATATCTCTCACTTATTTAAA,0.596,0.392,–
ACAGACGAAGGAGCCGCAAAGAAATTATTAAGGGATAAATAATCCATCAATATAAATATCTCTCACTTATTTAAA,0.216,–,–
ACAGACGAAGGAGCCGCAAAGAAATTATTAAGGGATAAATAATCCCTCAATATAAATATCTCTCACTTATTTAAA,0.761,0.818,1.1
ACAGACGAAGGAGCCGCAAAGAAATTATTAAGGGATCAATAATCCCTCAATATAAATATCTCTCACTTATTTAAA,–,0.646,–
ACAGACGAAGGAGCCGCAAAGAAATTATTAAGGGATGAAAAATCCCTCAATATAAATATCTCTCACTTATTTAAA,0.598,0.852,–
ACAGACGAAGGAGCCGCAAAGAAATTATTAAGGGATGAATAAACCCTCAATATAAATATCTCTCACTTATTTAAA,0.49,0.405,–
ACAGACGAAGGAGCCGCAAAGAAATTATTAAGGGATGAATAACCCCTCAATATAAATATCTCTCACTTATTTAAA,0.671,–,–
